Columns and labels:
Assay in all cases: ELISA; enzyme-linked lectin assay (ELLA): extracted glycoproteins immobilised at 4 μg/mL on high-binding 96-well plates, blocked with 0.5% PVA, probed 2 h at room temperature with WGAHRP or AuNP–WGAHRP (1 μg/mL WGAHRP) in PBS with 1 mM CaCl2 and 1 mM MgCl2, ABTS read at 405 nm; then the same plate probed with WGA antibodies and AlexaFluor 633 secondary antibodies (FLISA)
[1] = biological target: WGA-binding glycoproteins purified from NSC-34 cells in growth condition
[2] = biological target: WGA-binding glycoproteins purified from C2C12 cells in growth condition
[3] = biological target: WGA-binding glycoproteins purified from NSC-34 cells in differentiation conditions
[4] = biological target: WGA-binding glycoproteins purified from NE-4C cells in growth condition
[5] = biological target: WGA-binding glycoproteins purified from C2C12 cells in differentiation conditions

fluorescence intensity (FLISA) against WGAHRP (% lower than WGAHRP) [1]: 50
fluorescence intensity (FLISA) against WGAHRP (% lower than WGAHRP) [2]: 50
fluorescence intensity (FLISA) against WGAHRP (% lower than WGAHRP) [3]: 50
fluorescence intensity (FLISA) against WGAHRP (% lower than WGAHRP) [4]: 50
fluorescence intensity (FLISA) against WGAHRP (% lower than WGAHRP) [5]: 50
Substance: gold nanoparticle-conjugated WGAHRP (AuNP-MSA-WGAHRP conjugate) (from UniProt P00433 31-338)

From article PMC12044695
